The series concerns the molecule itself. Nature of the series: multi-angle light scattering.

B1: arrestin-1 (protein)
chain: MAACGKTNKSHVIFKKVSRDKSVTIYLGKRDYVDHVSQVEPVDGVVLVDPELVKGKKVYVTLTCAFRYGQEDIDVMGLTFRRDLYFSRVQVYPPVGAMSVLTQLQESLLKKLGDNTYPFLLTFPDYLPCSVMLQPAPQDVGKSCGVDFEVKAFASDITDPEEDKIPKKSSVRLLIRKVQHAPPEMGPQPSAEASWQFFMSDKPLNLSVSLSKEIYFHGEPIPVTVTVTNNTDKVVKKIKVSVEQIANVVLYSSDYYVKPVASEETQEKVQPNSTLTKTLVLVPLLANNRERRGIALDGKIKHEDTNLASSTIIKEGIDRTVMGILVSYHIKVKLTVSGFLGELTSSEVATEVPFRLMHPQPEDPAKESVQDENLVFEEFARQNLKDTGENTEGKKDEDAGQDE
What is called Kd is the equilibrium constant for the complex coming apart. Lower therefore signals higher affinity. Protein B1 registered a Kd of 57.5 µM.

The values are drawn from paper PMC3833262 (2014).
